According to patent US20260116958A1 (University of California, published 2026):

Legend:
[1] = molecular target: T1, active BoNT/G holotoxin (Clostridium botulinum, UniProt Q60393 2-1297); experiment: KinExA, IgG
T1 sequence: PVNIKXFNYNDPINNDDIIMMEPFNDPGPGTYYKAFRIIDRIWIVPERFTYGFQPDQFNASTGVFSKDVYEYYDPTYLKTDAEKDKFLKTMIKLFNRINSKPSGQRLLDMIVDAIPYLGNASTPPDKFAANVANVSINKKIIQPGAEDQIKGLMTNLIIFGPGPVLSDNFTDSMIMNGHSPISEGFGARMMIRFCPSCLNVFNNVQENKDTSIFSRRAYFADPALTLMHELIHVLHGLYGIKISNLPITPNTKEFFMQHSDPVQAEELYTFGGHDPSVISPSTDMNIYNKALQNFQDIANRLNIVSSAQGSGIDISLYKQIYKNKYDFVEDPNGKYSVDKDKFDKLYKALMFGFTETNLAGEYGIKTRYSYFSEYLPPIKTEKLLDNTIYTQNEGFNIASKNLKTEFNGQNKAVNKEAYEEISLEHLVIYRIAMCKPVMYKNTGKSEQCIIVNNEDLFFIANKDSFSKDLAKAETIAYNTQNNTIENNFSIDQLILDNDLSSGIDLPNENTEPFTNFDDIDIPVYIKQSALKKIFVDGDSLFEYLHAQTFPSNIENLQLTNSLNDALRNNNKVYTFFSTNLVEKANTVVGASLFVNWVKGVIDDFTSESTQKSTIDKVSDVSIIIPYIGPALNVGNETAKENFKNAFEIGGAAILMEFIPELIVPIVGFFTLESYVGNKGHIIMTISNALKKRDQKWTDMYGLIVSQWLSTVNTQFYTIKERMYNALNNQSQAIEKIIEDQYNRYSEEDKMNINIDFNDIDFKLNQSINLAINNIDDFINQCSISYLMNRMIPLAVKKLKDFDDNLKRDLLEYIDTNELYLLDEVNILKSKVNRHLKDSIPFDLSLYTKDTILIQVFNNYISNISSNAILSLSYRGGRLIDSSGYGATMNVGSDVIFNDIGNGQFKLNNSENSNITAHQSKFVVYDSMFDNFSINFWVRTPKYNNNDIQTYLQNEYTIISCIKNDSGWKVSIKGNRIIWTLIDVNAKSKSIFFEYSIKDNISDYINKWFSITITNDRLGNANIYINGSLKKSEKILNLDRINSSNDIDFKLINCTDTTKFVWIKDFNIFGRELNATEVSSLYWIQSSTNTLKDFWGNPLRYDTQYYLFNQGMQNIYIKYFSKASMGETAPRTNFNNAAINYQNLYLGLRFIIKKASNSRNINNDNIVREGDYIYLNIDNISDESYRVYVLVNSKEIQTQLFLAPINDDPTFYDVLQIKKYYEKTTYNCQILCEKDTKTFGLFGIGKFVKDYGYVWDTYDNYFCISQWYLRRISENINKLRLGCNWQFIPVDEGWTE

[2] = molecular target: T1, active BoNT/G holotoxin; experiment: KinExA, IgG; 'affinity to the active BoNT/G holotoxin'

B1: Hu6G7.2 IgG (antibody, V domains shown)
VH: QVQLVQSGAEVKKPGASVKVSCKASDYSFTDYNIYWVRQTPGQGLEWIGYIDPYNGGTSYNQKFKGRATLTVDKSISTAYMELSRLRSDDTAVYYCALYGYDPDYTEYWGQGTTLTVSS
VL: DIVLTQSPASMAVSPGQRVTITCSASSSVSYLHWFQQKPGQSPKLWIYSTSNLASGVPARFSGSGSGTDYTLTINPMEAEDTATYYCQQRSSYPYTFGQGTKLEIKR
[1]
  Kd: 0.051 nM
[2]
  Kd: 0.051 nM
